Source: paper PMC5159498, “IQGAP1 Interaction with RHO Family Proteins Revisited” (The Journal of Biological Chemistry, 2016)

Tests used:
Assay in all cases: stopped-flow fluorometry; mGppNHp-bound RHO protein (0.2 μM) rapidly mixed with IQGAP1 variant (2 μM, or 2-12 μM for kon); koff by displacement with 10 μM non-fluorescent GppNHp-bound GTPase; Kd = koff/kon; 30 mM Tris-HCl pH 7.5, 10 mM KH2PO4/K2HPO4, 5 mM MgCl2, 3 mM DTT
Details in all cases: both partners purified
[1] = biological target: T1, IQGAP1 GRD1-RGCT S1441E (aa 877-1558) (human, UniProt P46940 877-1558, S1441E)
T1 construct: human IQGAP1 aa 877-1558 with the phosphomimetic mutation S1441E, from the vector pET46 EkLIC; source: E. coli (pLysS BL21(DE3), CodonPlusRIL or BL21(Rosetta)), purified (Ni-NTA, gel filtration)
T1 sequence (looked up): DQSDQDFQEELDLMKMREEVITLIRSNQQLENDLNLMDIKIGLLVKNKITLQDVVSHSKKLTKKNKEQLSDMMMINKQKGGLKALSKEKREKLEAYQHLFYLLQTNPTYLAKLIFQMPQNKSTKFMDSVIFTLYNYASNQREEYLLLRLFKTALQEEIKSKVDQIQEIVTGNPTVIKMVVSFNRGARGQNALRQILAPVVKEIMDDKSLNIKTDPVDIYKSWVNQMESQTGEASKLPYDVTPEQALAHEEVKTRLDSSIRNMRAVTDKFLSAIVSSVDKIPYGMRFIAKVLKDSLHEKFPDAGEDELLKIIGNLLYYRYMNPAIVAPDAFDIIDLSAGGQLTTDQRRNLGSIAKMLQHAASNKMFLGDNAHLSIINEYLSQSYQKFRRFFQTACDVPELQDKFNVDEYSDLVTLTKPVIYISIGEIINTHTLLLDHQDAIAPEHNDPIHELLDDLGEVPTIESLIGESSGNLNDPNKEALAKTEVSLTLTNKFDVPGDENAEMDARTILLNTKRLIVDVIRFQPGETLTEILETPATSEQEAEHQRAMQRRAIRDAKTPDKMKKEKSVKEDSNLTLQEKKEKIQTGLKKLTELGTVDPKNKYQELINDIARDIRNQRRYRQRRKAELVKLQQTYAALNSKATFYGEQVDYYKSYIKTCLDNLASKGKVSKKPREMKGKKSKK

[2] = biological target: T2, IQGAP1 GRD1-RGCT wild type (aa 877-1558) (human, UniProt P46940 877-1558)
T2 construct: human IQGAP1, GRD and RGCT domains, lacks the last 99 amino acids, aa 877-1558; also called GRD1-RGCT^WT; IQGAP1^877-1558
T2 sequence (looked up): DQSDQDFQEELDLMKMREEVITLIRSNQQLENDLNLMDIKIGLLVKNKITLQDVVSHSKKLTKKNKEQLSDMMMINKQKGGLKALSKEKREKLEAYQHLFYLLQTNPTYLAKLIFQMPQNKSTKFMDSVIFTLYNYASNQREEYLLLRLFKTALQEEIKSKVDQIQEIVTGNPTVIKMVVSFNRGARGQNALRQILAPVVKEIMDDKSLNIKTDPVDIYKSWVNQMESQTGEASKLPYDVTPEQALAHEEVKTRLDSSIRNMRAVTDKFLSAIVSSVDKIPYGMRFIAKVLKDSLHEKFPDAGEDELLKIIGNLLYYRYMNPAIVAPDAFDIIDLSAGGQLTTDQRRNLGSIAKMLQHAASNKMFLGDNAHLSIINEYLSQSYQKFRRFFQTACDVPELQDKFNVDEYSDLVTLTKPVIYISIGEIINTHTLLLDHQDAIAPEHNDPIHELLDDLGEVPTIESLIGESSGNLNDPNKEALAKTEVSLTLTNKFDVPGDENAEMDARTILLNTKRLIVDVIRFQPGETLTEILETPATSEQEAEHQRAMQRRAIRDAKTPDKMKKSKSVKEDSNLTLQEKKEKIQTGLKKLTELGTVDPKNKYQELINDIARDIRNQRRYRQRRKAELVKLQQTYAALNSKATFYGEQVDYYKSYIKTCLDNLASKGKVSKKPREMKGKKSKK

[3] = biological target: T3, IQGAP1 GRD1-CT (aa 863-1657) (human, UniProt P46940 863-1657)
T3 construct: human IQGAP1, GRD, RGCT and CT domains, aa 863-1657; The GST tag was cleaved 'if needed'; also called C-terminal half of IQGAP1; C-terminal 795 amino acids of IQGAP1
T3 sequence (looked up): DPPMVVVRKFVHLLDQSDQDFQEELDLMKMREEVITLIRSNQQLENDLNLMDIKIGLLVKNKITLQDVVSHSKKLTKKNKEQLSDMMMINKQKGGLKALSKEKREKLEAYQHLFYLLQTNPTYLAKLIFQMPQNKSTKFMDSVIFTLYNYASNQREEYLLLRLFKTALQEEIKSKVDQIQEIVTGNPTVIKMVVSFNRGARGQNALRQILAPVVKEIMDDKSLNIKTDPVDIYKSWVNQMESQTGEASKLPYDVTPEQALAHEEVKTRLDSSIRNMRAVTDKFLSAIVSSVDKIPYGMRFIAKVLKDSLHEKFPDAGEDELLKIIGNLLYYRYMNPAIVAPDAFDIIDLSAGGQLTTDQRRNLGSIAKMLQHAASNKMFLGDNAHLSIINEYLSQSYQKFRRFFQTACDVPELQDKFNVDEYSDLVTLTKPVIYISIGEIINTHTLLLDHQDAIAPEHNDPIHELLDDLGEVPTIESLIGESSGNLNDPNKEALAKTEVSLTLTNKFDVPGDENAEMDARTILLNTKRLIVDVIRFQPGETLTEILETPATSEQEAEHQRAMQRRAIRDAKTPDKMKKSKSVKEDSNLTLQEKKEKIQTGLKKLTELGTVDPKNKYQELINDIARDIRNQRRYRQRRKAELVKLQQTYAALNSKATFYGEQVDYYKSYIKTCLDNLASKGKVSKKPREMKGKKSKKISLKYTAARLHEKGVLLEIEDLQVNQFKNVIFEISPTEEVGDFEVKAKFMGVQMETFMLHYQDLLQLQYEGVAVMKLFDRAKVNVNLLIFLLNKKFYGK

B1: CDC42 (aa 1-178) (domain or fragment)
chain: not shown
notes: human CDC42, C-terminally truncated, aa 1-178; Loaded non-covalently with mGppNHp, tGppNHp, mGDP or non-fluorescent GppNHp; the nucleotide is named in the format of each assay; also called CDC42^WT; CDC42-mGppNHp
Kd [1]: 2050 nM
Kd [2]: 2720 nM
Kd [3]: 300 nM
